Test results from the DeepSol protein solubility set.

Experiment: soluble on expression in E. coli; label from the status in PepcDB or PDB records

| Sequence | soluble on expression in E. coli |
| --- | --- |
| MPVNIPPLLPEQLLPIPGLSLGTAEASIKRPGRKDILVITLAENTRVAGVFTRNRFCAAPVTVARSHLTGSLPIRALVINTGNANAGTGQSGIDHAHATCASLARLIGCQTQQVLPFSTGVIMEPLPVEKIITHLPQALANLAPDNWFAAAQAIMTTDIVPKGVSRQIQINGTTVTITGIAKGSGMIHPNMATMLGYIATDAAVTQPLLDDLVRYATDRSFNCVTVDGDTSTNDALILMATGQAGNTPITVSTDPAFISLQAAITEVAALLAQMIVRDGEGATKFITVQVESGKTREECTKVAYAIAHSPLIKTACFASDPNLGRILAAIGYAGIEDLDVNLVQLYLGNILVAEHGGRAASYREEDGQRIMQAPEITIQVKLNRGNASTTVWTCDLSYDYVKINADYRSLEHHHHHH | not soluble |
| MGSSHHHHHHGGTGENLYFQGGSGMKSVFITGGNRGIGLETARQMGKLGYYVIISCRDEEKAKAAIEKVSAEGVKADYVIMDVVDESSVAKAAAEVSKKVNGVLDALINNAGKAAPSGDMSRVNLDEMRRCYEVNVIGTVCVTNHFLEMVKKSSAGRIVNVGSIKGSCQLEVTALSHTPYNCSKAALNMYTVNLASSLKDTNVKVNCAHPGWVKTDMGGPQAPLEVTEGAETSVYLATLPADGPTGGFFHKRDRLPW | soluble |
| MGSTSSLYAAIDLGSNSFHMLVVREVAGSIQTLTRIKRKVRLAAGLNSENDLSNEAMERGWQCLRLFAERLQDIPPSQIRVVATATLRLAVNAGDFIAKAQEILGCPVQVISGEEEARLIYQGVAHTTGGADQRLVVDIGGASTELVTGTGAQTTSLFSLSMGCVTWLERYFADRNLGQENFDAAEKAAREVLRPVADELRYHGWKVCVGASGTVQALQEIMMAQGMDERITLEKLQQLKQRAIHCGRLEELEIDGLTLERALVFPSGLAILIAIFTELNIQCMTLAGGALREGLVYGMLHLAVEQDIRSRTLRNIQRRFMIDIDQAQRVAKVAANFFDQVENEWHLEAISRDLLISACQLHEIGLSVDFKQAPQHAAYLVRNLDLPGFTPAQKKLLATLLLNQTNPVDLSSLHQQNAVPPRVAEQLCRLLRLAIIFASRRRDDLVPEMTLQANHELLTLTLPQGWLTQHPLGKEIIAQENQWQSYVHWPLEVH | not soluble |
| MRLIVVSGQSGAGKSVALRVLEDLGYYCVDNLPVSLLTAFIQSVQGSQQNVAVSIDIRNLPKEPSLVQDVLDQLKQNNDVSMLFLDASKETLLKRYSETRRIHPLSLSQSKPSLAQAIELEKQLLGPLKEQADLLLDSSNQSLHELSETVRMRIEGRERKDLVMVFQSFGFKYGLPTDADYVFDVRFLPNPHWEPDLRPLTGLDAPIKSFLEGHSEVMELKQQIQKFFEYWLPMLEKNNRSYLTIAIGCTGGKHRSVYLTQQLGEYFAQLGHQVQLRHTSLEKQ | soluble |
| MEKFNNIAQLKDSGLKVTGPRLKILDLFETHAEEHLSAEDVYRILLEEGVEIGVATIYRVLTQFEQAGILQRHHFETGKAVYELDKGDHHDHIVCVKCGEVTEFHNPEIEALQDKIAEENGYRIVDHALYMYGVCSDCQAKGKR | not soluble |
| TAQIKGLTQAQRNANDGISLAQTAEGALGEISNNLQRIRELAVQASNGTNTQTDRDALQAEVTQLQSEIQRVAEQTSFNGQKLLDGSFNGVQFQIGANAGETIGVSKIMNAQTASLGGSLTRTTSTIDATDLTKYDTAMAAGDLTINGVDVGKIDAASTAQERAAQLTEAINRVSSQTNVGASYDKTTGQVTLTSNAAIAVAGAANDATVAGWANNATTGTATTTTGINSLTVSSFTNAQQTITQIDNALKDINTARADLGAVQNRFTSTVANLQSMTENLSSALEHHHHHH | soluble |
| MKTNTIITIGRQFGSAGREIGYQIADYFGIKLYDKEMLSRAAKESGICEEIFETHDEKPTNSFLYSLVMDTYSMGYSGGSYSDMPINHKVFLAQFDAIKKIADEGPCILVGRCADYALESYDNVVNVFIHADLDARIRRIARIYNLTDAKAKDMIIKTDKKRASYYNYYTNKKWSDSESYELCLSSSELGIEGTAKAIEQYVMLKEQIQRDDKIL | not soluble |
| MKKKLTGVALVLAAVSLMGIQPAGACTRAVYLGPDRMVVTGRTMDWKEDIMSNIYVFPRGMQRAGHNKEKTVNWTSKYGSVIATGYDIGTCDGMNEKGLVASLLFLPESVYSLPGDTRPAMGISIWTQYVLDNFATVREAVDEMKKETFRIDAPRMPNGGPESTLHMAITDETGNTAVIEYLDGKLSIHEGKEYQVMTNSPRYELQLAVNDYWKEVGGLQMLPGTNRSSDRFVRASFYIHAIPQTADAKIAVPSVLSVMRNVSVPFGINTPEKPHISSTRWRSVSDQKNKVYYFESTLTPNLFWLDLKKIDFSPKAGVKKLSLTKGEIYAGDAVKDLKDSQSFTFLFETPVM | soluble |
| MKKIALAVLSLGLLVSGCSAGADKDEKVAEKSGKAKEQSVVPKYAISDEYYKTTIPFDGGNARGLVVQGLNSRLDIDEFETGLMRIAKESFSTKDNFLKGGKALDTQTIQMLVKRKRTDAEQKELEDKLKKDAVKFPNIGLNPALGTGSESLEVKNKKNPIYISNILEHDYYVKKGDNGEERVGMVVGLAMNSVQYFNEEHGYPREAAIPDEKMLAEGKKMAQEILKVIHQKEPETKNIPITFAIYRQAPKSSLVPGNFVSYANVEKGSETVEDWQQINEKYYLFPSEQAKTDNKREDLARVSNFKAKLSDYFQGDYTAVIGTGMYRDDELREMKLDIPVQFNGKAEIVGFTQYVAGLVMEYFPNYMKVQVTIKSVERPEAIIIREAKQDEPLVKILD | not soluble |
| MSAQVQDLTPIKGVTYYYPPHDAVLVFKDGAAEIPYGGLPVPLLEEDYASLDGEPSYDAVGRGVYQTLRTNPDCIHCAAYATLLRDAYPHYLAELASHAIMLDSKDVEVPYIDRKIVSLKVLSLLEPDNAGLPLEIGRAYLDRGLRLSALHMSTVSIYRAEHFLRRALELTPEDGRALRLLGEVCYLLGKYEEAASCWLDTLDLADADEAERFRVRLARISEGRLPLIAPVDYLEAIGAAFTCFHTGDYEEAVAILQDVLMDGIFCAEFPIADIHCVIGKSFVQLDMPRYAEESFRAALQLDPAHEESLACLRKVTGEELEHHHHHH | soluble |
| MVSTESEIAVRIRGIYSTALTKLLMDRGFKIVQPSDVIAERFGIEKSYEDFDVDIYDKNHGVTIVGTKVEAVKKVFEEEFIDVFFRKLPYKLHGIYKGLVVKRDDRFVYVDIGNVIGTVLIEELPDAAEGDEVVVQVKKHNVLPHLSTLITIPGDYAVLIPKPIGVQRHVKISRKIKDPEERERLRILGLSVDLGEWGVLWRTAAAYKDWNTLRDELVRLSKIADKLKEAEKFSAPAEIIEGREIYEIEFGGGVKKKLDEIRNEVVPTIEGHHQFKSYDPEFTLAVDVAEGILAKLPSQRQKISKGFLEAIITSKGPKVGWIFTLNHVKPDGQIIKIGPGEVIEVSTDPLKVTIKRYLRPGKFYDGLEVPIESGDYAITEIEAGKWWFVHRYYDKDGNLKGEFYNINTPVEIYPDKARYVDLEVDIVRWPDGKKEIIDKEKLKEHYEEGIISEKLYKATLRIAQEVYDRLLEHHHHHH | not soluble |
| MAHHHHHHMLETQHLHTHSGRLIPPPPRRTPRRKSSVCRTPTRRHNPAESGLSASSKTTRSDVYECRMAPVRGRRESHDSTPGRPRAPEDVNYARGRSMNERPAPSKPQCAIPSKNGRLEESRASTLAVDRERFSQTRWGRSDEIISQSPLAGRSHSLREGEFCDPQALTMRLRHSLSRGYSPQCGHPTQAVVGTELAPPMPRLQGAYGTSKNRYRKTIERFIECQPTNTQKEMQSMLEEYRGRENELCEALSVAYSDSWEASVRGNDTIIQSHKNDNCSKFALNESPGMPEMKDFPRVGNGKGHFDSMNNGECNHNATAENHRQRMTKPTSSSHSTPSRFQDSHQNVDCLRSFSDVATPRRNEGINLSKSAEKERYDEDTSPHLRNGSSGGVNVPLSLGIILEQGETSPRSGGMLTPPIPADLLAR | not soluble |
| MILLKSEHGGKRKEMRQDDLMGPNHFSLRIMYKIIIYTYPVSLYAVKELNLSKTFSISALGILNSNSNRSPAKKQTFFSACVAKSYSSFFISICILDLASHL | soluble |
| MLNNPVGWFEIYVNDMERAKTFYETVLKVSLEEMPNPTSMPIKMLTFPSNMEKYGASGALVKMEGICAGGGGTLIYFSSDDCAVEQERIVAAGGQIHTPKMSIGEYGFITLAVDTEGNLFGLHSMQ | not soluble |
| MGKNRNKNKDKDPYIGPAKTGRNDSDSDDSESSAYTYNEDIQSIMGDVEDMNDVYDQLVDNLDRAQDKNSTTRIDGLHRVNLALTAKPAPEFINRNKETIMAVCSRMANKPDSEAQFLARLVGLVAVQAGEEISEMIAEPMSQMRTILMDASRCVFLRTACATSLAIVTRIACSEDEEVTANAKACRFAWAHTKVSGSANDIGHAKLTINDAVADQPKIVTLLSSNQLEVRLAAAETLAFLHEFMQDARPGFRFPNKEHVLSLLDQMVNDSSKKKTKKDKRAQRYAVRDIRAFIADEDDAPEVNVKIGQQTLSLDSCAIKIFYDTTCDLLHGGLAQQLLHNEVLRDVFDLGPIALEPAESANKQSRLAVHEAADKHRNQVRGKQRDKRSTVY | not soluble |
| AQPGAEVLAIDGITVKDTRGIETVRDLSLSVKAGEIVGIAGVDGNGQSELIEAVTGLRKTDSGTITLNGKQIQNLTPRKITESGIGHIPQDRHKHGLVLDFPIGENILLQSYYKKPYSALGVLHKGEMYKKARSLITEYDVRTPDEYTHARALSGGNQQKAIIGREIDRNPDLLIAAQPTRGLDVGAIEFVHKKLIEQRDAGKAVLLLSFELEEIMNLSDRIAVIFEGRIIASVNPQETTEQELGLLMAGSTQKEAGKANG | not soluble |
| MGSDKIHHHHHHAICLRDDIGNYVIKWETDPVMEGIVKMTVSDNPDLFTNESPIIYANIKDGVATYITNDNISRKYFRLSFNDKYPRIIGARSAVMDSVQNFRDLGGYTSTNGKTVKWGKVFRSGELSSLSEWDSIRLDNLGIKTIIDLRTNQETLTAPIKYTKANILQIPISVGKIADAPQRVIEGRMRKGDAGVYMEDEYLQFVTDNTDQFAKVLEQFQNEDNYPILISCSYGKDRTGFLTAMLLAALDIPRDAIMEDYLTSNQYIDTSHLADIVKHLSTDAQESITVFLTANEGLMDLAFHKIKKEYGSTEKYLSKGLRLTDKKRERLKDILLY | not soluble |
| MGSDKIHHHHHHMSQQEFDVLVIGAGISGAALFYELARYTNIKNIALIEKYNTAATLNSKGTSNSQTIHCGDIETNYTLEKARKVKRTADMIVKYGLMQNAQNNFMFSHQKMALAVGDIECDYMKKRYEEFKELYPYIKFFDKAKIKQIEPKVVLGEDCNQDRPENICAMGVESGEVFTTVDFGKMSINLIEQAQKQNKNTFVAFNQEIIHIEKKDDIFILKTSNHQEYHAKSVVVNAGAHSLYLAHKMNLGMDKSCWPVAGSFYLTKQKLLNGKVYMVQNPKLPFAALHGDPDLLADMNTRFGPTALVIPKLERYHGLKSVPEFFEALKLDKTVLKVTFNMFKDATIRNYIFYNYLFELPFVDKSLFVKDAKKIVPSLKASDIYYAKGFGGVRPQVIDKTKGELMLGEASITETPGIIFNMTPSPGATSCLGNAERDAKLVCNYLGMEFNEDKFSSELL | not soluble |
| MEPAAGSSMEPSADWLATAAARGRVEEVRALLEAGALPNAPNSYGRRPIQVMMMGSARVAELLLLHGAEPNCADPATLTRPVHDAAREGFLDTLVVLHRAGARLDVRDAWGRLPVDLAEELGHRDVARYLRAAAGGTRGSNHARIDAAEGPSDIPD | soluble |
